Test results as given in the supplement of paper PMC10567573.
± gives the standard deviation.

Test: protein stability index of a GFP-peptide fusion (GPS, HEK-293T) (PSI 1-6); higher = more stable
[1] = treatment: DMSO, c terminus: a fixed tail appended
[2] = treatment: MLN4924 1 uM, 8 h, c terminus: a fixed tail appended
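Also: 24-mer peptide tiles fused after GFP, lentivirally expressed, FACS-sorted into six equal bins by GFP/DsRed ratio, decoded by Illumina sequencing, PSI is the read-weighted mean bin number.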

Row | Sequence | protein stability index [1] | protein stability index [2] | protein stability index (treatment: DMSO, c terminus: native) | protein stability index (treatment: MLN4924 1 uM, 8 h, c terminus: native)
1 | MTTHPLTNNNIKQRLIKKVQEAVL [GOLPH3] | 2.79 ± 0.65 | 2.65 ± 0.59 | – | –
2 | CTVLRDARIRSHSWLESCIVGWRC [GMPPB] | 2.42 ± 0.39 | 1.93 ± 0.43 | – | –
3 | GGKSGGIVISPFRLEELTNRLASL [CCDC6] | 2.58 ± 0.33 | 2.69 ± 0.22 | – | –
4 | EILLHPWFESVLEPGYIDSEIGTS [TRIB1] | 2.44 ± 0.29 | 2.56 ± 0.43 | – | –
5 | IPGLPGLRGLPGERGTPGLPGPKG [SCARA5] | 4.34 ± 0.41 | 4.42 ± 0.22 | – | –
6 | VQGLEGIKMAMVACGDAFTVAIGA [NEK8] | 2.79 ± 0.71 | 2.95 ± 0.46 | – | –
7 | TYPFLAMIMLKDRRMTVVGRLEGL [FAF2] | 2.66 ± 0.76 | 2.57 ± 0.46 | – | –
8 | DGNKIFLCHCGKAFSHKSMRDRHV [ZBTB22] | 2.39 ± 0.4 | 2.61 ± 0.56 | – | –
9 | DQEGLQRITGLSPGRSALIVAVLC [SPNS1] | 2.31 ± 0.46 | 2.27 ± 0.35 | – | –
10 | LGSSAASTALERPSFLSQTGHGVS [FCHO1] | 4.28 ± 0.45 | 4.2 ± 0.24 | – | –
11 | VRFLEQQNAALRGELSQARGQEPA [PRPH] | 4.57 ± 0.27 | 4.41 ± 0.18 | – | –
12 | LHEEEHVLLMAICIVSPDRPGVQD [VDR] | 2.44 ± 0.29 | 2.24 ± 0.25 | – | –
13 | TAPQQKPIGKISKNKKKKLKKKQK [SRPK2] | 4.92 ± 0.32 | 4.84 ± 0.67 | – | –
14 | LPWQGLKADTLKERYQKIGDTKRA [CSNK1G3] | 3.77 ± 0.11 | 3.76 ± 0.41 | – | –
15 | IGDSRPPSFHPHAGGGSQENLDND [DVL3] | 5.56 ± 0.18 | 5.41 ± 0.1 | – | –
16 | RVEASHLTTSQERELGIRQRDEQL [FBF1] | 4.91 ± 0.22 | 5.13 ± 0.22 | – | –
17 | PTFKSFEERVETTVTSLKTKVGGT [TPD52L1] | 4.64 ± 0.25 | 4.65 ± 0.033 | – | –
18 | LGKLIPRHQSIFKSNGFFHGISIP [CDKL4] | 2.17 ± 0.052 | 2.23 ± 0.41 | – | –
19 | ICDKHWTAKNSRVVCGMFGFPGER [LOXL2] | 2.42 ± 0.34 | 2.42 ± 0.35 | – | –
20 | AEEETLSRELEPELRRRRYEYDHW [ALKBH7] | 4.35 ± 0.29 | 4.59 ± 0.22 | – | –
21 | SRFYEIHARARDQGQPAMEGHCVI [PCDHGC5] | 2.82 ± 0.27 | 2.54 ± 0.15 | – | –
22 | AAAVLFRMSEDKPQDYKKRLSVEL [CTNNB1] | 2.62 ± 0.31 | 2.25 ± 0.27 | – | –
23 | GSAAKLVCYFTNWAQYRQGEARFL [CHIT1] | 2.1 ± 0.36 | 2.23 ± 0.18 | – | –

Row | Sequence | protein stability index [1] | protein stability index [2] | protein stability index (treatment: DMSO, c terminus: native) | protein stability index (treatment: MLN4924 1 uM, 8 h, c terminus: native)
24 | LGLDNRLFGHPGLDMELGPSQGQE [ADAMTSL2] | 4.84 ± 0.21 | – | – | –
25 | VSPGVLVLLAVLPVLLLQITVGLV [MOG] | 2.92 ± 0.39 | 2.96 ± 0.51 | – | –
26 | EVDFFQRYFIADLPHLQDSFVDKL [INTS4] | 2.23 ± 0.43 | 2.65 ± 0.25 | – | –
27 | SATLSWKQPPLSTVPADGYILELD [TRIM9] | 3.52 ± 0.33 | 3.63 ± 0.37 | – | –
28 | AGTAGHPPSGSQPLTSTQGLEHAA [FBF1] | 4.84 ± 0.11 | 4.89 ± 0.35 | – | –
29 | KTRRKTSARDASPTPSTDAEYPAN [NCK2] | 5.31 ± 0.21 | 5.45 ± 0.17 | – | –
30 | TTFQDVYFVSESFEDAKEKMREFT [TPH1] | 3.61 ± 0.2 | 3.58 ± 0.29 | – | –
31 | RILQDEQYLMASDMAGKIKLWDLR [DCAF4] | 2.75 ± 0.34 | 3.01 ± 0.12 | – | –
32 | KRYAGREEHWVGLKKEPGHPWKWS [CD69] | 2.76 ± 0.22 | 2.83 ± 0.2 | – | –
33 | QRLEEQERRHREEKERRKKQQWEI [RSPH3] | 4.45 ± 0.28 | 4.54 ± 0.31 | – | –
34 | NFFNQVLMLGKTSISDLSEHVFDL [PDS5B] | 2.56 ± 0.54 | 2.63 ± 0.32 | – | –
35 | ETVSPLPSSMDLLIQDSPDSSTSP [NANOGP8] | 5.45 ± 0.37 | 5.45 ± 0.25 | – | –
36 | LIKTIETRNGEVVTESQKEQRSEL [PRPH] | 4.91 ± 0.52 | 4.67 ± 0.53 | – | –
37 | AKKKRLTKADIGTPSNFQHIGHVG [WASL] | 3.52 ± 0.3 | 3.67 ± 0.18 | – | –
38 | FWNIKQMWDTKTLGLRQHHCRKCG [WDFY1] | 2.64 ± 0.25 | 2.86 ± 0.49 | – | –
39 | SSFNFFVFFFIFFVQDVLFVLQAI [SCAMP3] | 3.17 ± 0.26 | 3.18 ± 0.28 | – | –
40 | SLLCLLCSNSQEHGAHKHHPIEEA [TRIM43] | 2.67 ± 0.2 | 2.77 ± 0.21 | – | –
41 | SDVIEYAKQKLDFFIRTSDSFDKF [PCMTD2] | 2.36 ± 0.22 | 2.48 ± 0.19 | – | –
42 | SGVCLFAVFIALLPILGHRDYKIQ [PTGFR] | 3.6 ± 0.45 | 3.37 ± 0.12 | – | –
43 | QAKPEKAAVAQKPRSHFTTPAPMS [MYBL2] | 4.44 ± 0.34 | 4.39 ± 0.11 | – | –
44 | ERLTAPEILLHPWFESVLEPGYID [TRIB1] | 3.26 ± 0.21 | 3.3 ± 0.3 | – | –
45 | PCASLLAFASTCLLSRFSVGIFHL [TMEM175] | 3.43 ± 0.076 | 3 ± 0.3 | – | –
46 | SLKLASSELERLIVPNSNGVITTT [JUNB] | 3.24 ± 0.41 | 3.4 ± 0.54 | – | –

Row | Sequence | protein stability index [1] | protein stability index [2] | protein stability index (treatment: DMSO, c terminus: native) | protein stability index (treatment: MLN4924 1 uM, 8 h, c terminus: native)
47 | APPLPDSPQPLASSPGPWGLEALA [FCHO1] | 4.43 ± 0.16 | 3.99 ± 0.18 | – | –
48 | DEKDRIITAFYNEARARARANRGI [DNAJC4] | 4 ± 0.35 | 4.16 ± 0.17 | – | –
49 | APNRFFQKLNVFKNFIGLLQNQNF [NLN] | – | 2.24 ± 0.82 | – | –
50 | VQRSPWLMMRMGILGRGLQEYQLP [TCAP] | 2.3 ± 0.17 | 2.21 ± 0.48 | – | –
51 | VAAGVLCELAQDKEAAEAIEAEGA [CTNNB1] | 5.31 ± 0.12 | 5.44 ± 0.12 | – | –
52 | HAPTIHFNYRYFEVEEADGNKQWW [CPOX] | 2.66 ± 0.38 | 2.7 ± 0.29 | – | –
53 | VQHERIHTGDKPYKCAECGKSFCH [ZNF8] | 4.54 ± 0.33 | 4.68 ± 0.16 | – | –
54 | DVKKLEEAGFHTVEAVAYAPKKEL [RAD51] | 4.73 ± 0.2 | 4.91 ± 0.078 | – | –
55 | YLGSLQYRVWKKMLASVESVPFSF [TRIM35] | 2.93 ± 0.63 | 2.33 ± 0.48 | – | –
56 | ESSDLQMDVMPGEGDLPQMEVGSG [EID1] | 5.42 ± 0.15 | 5.21 ± 0.3 | – | –
57 | EEEEGTRSPTLEPPRGRSEAPDSL [SMG5] | 5.44 ± 0.14 | 5.68 ± 0.25 | – | –
58 | QPPRFPVPHNGSSEATLPAQMSTL [PDLIM4] | 4.67 ± 0.19 | 4.83 ± 0.089 | – | –
59 | EKLITWLNKELNENQLVRKQDVLG [SASS6] | 2.12 ± 0.44 | 3.1 ± 0.26 | – | –
60 | YCRLKKCLKVGMRREAVQRGRMPP [NR2F2] | 2.84 ± 0.39 | 2.77 ± 0.26 | – | –
61 | SQIETLTSVFQKKLCTAHMCSTLE [MATN2] | 2.03 ± 0.2 | 2.81 ± 0.74 | – | –
62 | GVIAAIVQLHNGTKYKKFPHWLDK [STEAP1] | 2.6 ± 0.31 | 2.39 ± 0.63 | – | –
63 | DNAVQGLRRHEILQWVLQTDSQQ [LRRC59] | – | – | 3.37 ± 0.2 | 3.44 ± 0.24
64 | IAQYALLGYFIRSWRTLAILVNLQ [SLC22A15] | 3.07 ± 0.51 | 2.78 ± 0.21 | – | –
65 | MAEPSAATQSHSISSSSFGAEPSA [RTN3] | 5.06 ± 0.096 | 5.17 ± 0.13 | – | –
66 | NSRFQMLFTSFQEPPCEGNTFFCH [NETO1] | 2.23 ± 0.45 | 2.23 ± 0.11 | – | –
67 | GTTEAATQDGKEQPELPCAMAMGT [PXN] | 5.48 ± 0.13 | 5.45 ± 0.22 | – | –
68 | HTETKTITYESSQVDPGTDLEPGV [EPB41L3] | 5.48 ± 0.17 | 5.37 ± 0.25 | – | –
69 | ETELALVKESGERKVTDSISKSLE [DLC1] | 5.56 ± 0.35 | 5.13 ± 0.44 | – | –

Row | Sequence | protein stability index [1] | protein stability index [2] | protein stability index (treatment: DMSO, c terminus: native) | protein stability index (treatment: MLN4924 1 uM, 8 h, c terminus: native)
70 | AWEKLLAAFPNLANLSRTQLLHLG [KLHDC10] | 2.06 ± 0.27 | 2.1 ± 0.11 | – | –
71 | SSSKWQRRDYLLLVMEGTDDGRLL [APMAP] | 2.88 ± 0.43 | 2.32 ± 0.39 | – | –
72 | ARVKAFNKTGVSPYSKTLVLQTSE [TRIM9] | 3.2 ± 0.28 | 3.34 ± 0.21 | – | –
73 | DRTAIRSDTTHLVTLGGVLRQQLV [KLHL13] | 2.61 ± 0.28 | 2.73 ± 0.22 | – | –
74 | VQDEFLDTPCTNRGLPLLKTDFGS [DLC1] | 3.85 ± 0.43 | 3.91 ± 0.41 | – | –
75 | SKAKKLVCNINKGCGYGCQLHHVV [FUT8] | 2.71 ± 0.43 | 2.19 ± 0.4 | – | –
76 | FSSSSQEAFAASAVGSGERRGGGP [ZBTB22] | 3.66 ± 0.32 | 4.03 ± 0.34 | – | –
77 | RVEVLTDAGGWVLIDRSGRHFGTI [KCTD13] | 2.37 ± 0.46 | 2.38 ± 0.7 | – | –
78 | HSKGHKSSRQEKRPLCAQGDWHSP [ELOA2] | 3.93 ± 0.28 | 4.23 ± 0.37 | – | –
79 | PFFFTGAFPFNMQELVLKVRIQNP [ANKRD40] | 2.27 ± 0.042 | 1.99 ± 0.61 | – | –
80 | LQSYQAEIIELRRTVNALEIELQA [KRT33B] | 2.59 ± 0.54 | 2.27 ± 0.3 | – | –
81 | FQEAMTHLQHKLICTRKPEEIRGG [TENT5D] | 3.05 ± 0.17 | 3.29 ± 0.41 | – | –
82 | HVASLADDKMVRFWRIDEDYPVQV [WSB1] | 2.4 ± 0.23 | 3.02 ± 0.51 | – | –
83 | LLFSLTQFSVVSVVAYLALAALSA [RTN1] | 3.4 ± 0.54 | 3.24 ± 0.058 | – | –
84 | TLQELLARDTVQVELIPEKKGLFL [SNX8] | 2.47 ± 0.62 | 2.41 ± 0.43 | – | –
85 | KLPLPVTIKSHLKSFSMANGMNAV [RAB40C] | 2.36 ± 0.18 | 2.46 ± 0.093 | – | –
86 | SLFSPVTEDSPLGTVVALLNVHDL [PCDHGA10] | 2.31 ± 0.2 | 2.32 ± 0.3 | – | –
87 | ETELAMRQSVENDIHGLRKVIDDT [KRT18] | 5.17 ± 0.28 | 5.2 ± 0.18 | – | –
88 | EKSLDQLKSISAEEILTLFCGAPP [PHTF1] | 3.02 ± 0.21 | 3.3 ± 0.15 | – | –
89 | VIASGSSVGHNNLIPLANTGIVNH [CARM1] | 3.11 ± 0.099 | 3.19 ± 0.23 | – | –
